Patent publication US20210246166A1 (Bayer, published 2021)
Bridge positions count the residues as written; N and C are the ends. Square brackets hold non-standard residues; d marks the D form. Ends that are not written are not given here. Oic = O=C(O)[C@@H]1C[C@@H]2CCCC[C@@H]2N1; Phe(2-Cl) = N[C@@H](Cc1ccccc1Cl)C(=O)O; tBuAla = CC(C)(C)C[C@H](N)C(=O)O; Chg = N[C@H](C(=O)O)C1CCCCC1; NMeC = CN[C@@H](CS)C(=O)O; Orn = NCCC[C@H](N)C(=O)O; Sar = CNCC(=O)O

T1: recombinant rat MASP1 active protease (amino acids 302-704, C-terminal His Tag) (rat, UniProt Q8CHN8 302-704)
T1 sequence: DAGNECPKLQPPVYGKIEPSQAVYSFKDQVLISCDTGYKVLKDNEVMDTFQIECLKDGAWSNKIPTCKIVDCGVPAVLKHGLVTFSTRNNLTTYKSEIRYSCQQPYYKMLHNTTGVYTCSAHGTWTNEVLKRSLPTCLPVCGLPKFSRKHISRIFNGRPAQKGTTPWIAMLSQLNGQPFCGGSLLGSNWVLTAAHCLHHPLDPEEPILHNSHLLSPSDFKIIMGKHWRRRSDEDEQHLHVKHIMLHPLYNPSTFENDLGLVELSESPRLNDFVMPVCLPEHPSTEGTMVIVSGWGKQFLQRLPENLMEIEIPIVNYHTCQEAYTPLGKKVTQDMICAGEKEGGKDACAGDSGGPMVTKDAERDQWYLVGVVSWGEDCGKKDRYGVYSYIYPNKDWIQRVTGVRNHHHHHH

B1: Example 238: AIC+SRS-((2-Chloro)F)-PPI-((N-Me)C)+IPD-NH2 (peptide)
peptide: AICSRS[Phe(2-Cl)]PPI[NMeC]IPD-NH2
modifications: disulfide 3-11; N-terminus assumed
SMILES: CC[C@H](C)[C@H](NC(=O)[C@H](C)N)C(=O)N[C@H]1CSSC[C@@H](C(=O)N[C@H](C(=O)N2CCC[C@H]2C(=O)N[C@@H](CC(=O)O)C(N)=O)[C@@H](C)CC)N(C)C(=O)[C@H]([C@@H](C)CC)NC(=O)[C@@H]2CCCN2C(=O)[C@@H]2CCCN2C(=O)[C@H](Cc2ccccc2Cl)NC(=O)[C@H](CO)NC(=O)[C@H](CCCNC(=N)N)NC(=O)[C@H](CO)NC1=O
B2: Example 247: AIC+SRSLPP-(Chg)-C+I-NH2 (peptide)
peptide: AICSRSLPP[Chg]CI-NH2
modifications: disulfide 3-11; N-terminus assumed
SMILES: CC[C@H](C)[C@H](NC(=O)[C@@H]1CSSC[C@H](NC(=O)[C@@H](NC(=O)[C@H](C)N)[C@@H](C)CC)C(=O)N[C@@H](CO)C(=O)N[C@@H](CCCNC(=N)N)C(=O)N[C@@H](CO)C(=O)N[C@@H](CC(C)C)C(=O)N2CCC[C@H]2C(=O)N2CCC[C@H]2C(=O)N[C@@H](C2CCCCC2)C(=O)N1)C(N)=O
B3: Example 246: ((N-Me)G)-IC+SRS-((tBu)A)-PPIC+IPD-OH (peptide)
peptide: [Sar]ICSRS[tBuAla]PPICIPD-OH
modifications: disulfide 3-11; N-terminus assumed
SMILES: CC[C@H](C)[C@H](NC(=O)CNC)C(=O)N[C@H]1CSSC[C@@H](C(=O)N[C@H](C(=O)N2CCC[C@H]2C(=O)N[C@@H](CC(=O)O)C(=O)O)[C@@H](C)CC)NC(=O)[C@H]([C@@H](C)CC)NC(=O)[C@@H]2CCCN2C(=O)[C@@H]2CCCN2C(=O)[C@H](CC(C)(C)C)NC(=O)[C@H](CO)NC(=O)[C@H](CCCNC(=N)N)NC(=O)[C@H](CO)NC1=O
B4: Example 234: AIC+SRS-((tBu)A)-P-(Oic)-I-C+IPD-NH2 (peptide)
peptide: AICSRS[tBuAla]P[Oic]ICIPD-NH2
modifications: disulfide 3-11; N-terminus assumed
SMILES: CC[C@H](C)[C@H](NC(=O)[C@H](C)N)C(=O)N[C@H]1CSSC[C@@H](C(=O)N[C@H](C(=O)N2CCC[C@H]2C(=O)N[C@@H](CC(=O)O)C(N)=O)[C@@H](C)CC)NC(=O)[C@H]([C@@H](C)CC)NC(=O)[C@@H]2C[C@@H]3CCCC[C@@H]3N2C(=O)[C@@H]2CCCN2C(=O)[C@H](CC(C)(C)C)NC(=O)[C@H](CO)NC(=O)[C@H](CCCNC(=N)N)NC(=O)[C@H](CO)NC1=O
B5: Example 236: (Orn)-IC+SRSLPPIC+I-NH2 (peptide)
peptide: [Orn]ICSRSLPPICI-NH2
modifications: disulfide 3-11; N-terminus assumed
SMILES: CC[C@H](C)[C@H](NC(=O)[C@@H]1CSSC[C@H](NC(=O)[C@@H](NC(=O)[C@@H](N)CCCN)[C@@H](C)CC)C(=O)N[C@@H](CO)C(=O)N[C@@H](CCCNC(=N)N)C(=O)N[C@@H](CO)C(=O)N[C@@H](CC(C)C)C(=O)N2CCC[C@H]2C(=O)N2CCC[C@H]2C(=O)N[C@@H]([C@@H](C)CC)C(=O)N1)C(N)=O

molecular target: T1, recombinant rat MASP1 active protease …; assay: cell-based or functional assay

Point of comparison: B2, “rat MASP1 IC50” value 700 nM. Against it:
- B1 — 4.7-fold lower, 150 nM
- [(N,N-diMe)A]ICSRS[tBuAla]PPICIPD-NH2 (disulfide 3-11) [Example 243: ((N,N-diMe)A)-IC+SRS-((tBu)A)-PPIC+IPD-NH2] — 5-fold lower, 140 nM
- B3 — 9-fold lower, 78 nM
- B4 — 9-fold lower, 78 nM
- B5 — within 1.5-fold, 890 nM
- AICSRSL[(4aR,6aR,9S,11aS)‑11‑Oxo‑2,3,4,4a,6a,7,8,9,11,11a‑decahydro‑1H‑pyrido(3,2-e)pyrrolo(1,2-a)azepine‑9‑carboxylic acid]ICIPD-NH2 (disulfide 3-10) — 5.4-fold lower, 130 nM
